# Laboratory results taken from paper PMC7275041, “m5C modification of mRNA serves a DNA damage code to promote homologous recombination”.
# T1: RAD52 (hRAD52) (human, UniProt P43351 1-418)
# T1 sequence: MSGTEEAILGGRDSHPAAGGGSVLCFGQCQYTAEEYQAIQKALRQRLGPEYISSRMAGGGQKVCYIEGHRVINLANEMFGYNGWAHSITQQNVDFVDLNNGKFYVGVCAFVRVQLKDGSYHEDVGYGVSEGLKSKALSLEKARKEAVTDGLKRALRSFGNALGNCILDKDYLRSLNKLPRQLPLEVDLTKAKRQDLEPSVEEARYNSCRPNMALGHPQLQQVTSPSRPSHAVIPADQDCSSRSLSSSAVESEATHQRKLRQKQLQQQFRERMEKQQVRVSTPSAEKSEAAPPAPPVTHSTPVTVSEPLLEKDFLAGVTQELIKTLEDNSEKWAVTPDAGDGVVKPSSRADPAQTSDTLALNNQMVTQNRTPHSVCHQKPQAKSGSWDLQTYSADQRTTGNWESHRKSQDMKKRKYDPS
# Target: T1, RAD52 (hRAD52)
# Experiment: EMSA; higher efficiency than unmodified N1; 1 mM Mg2+; source data at top RAD52 level (360, unit not shown): 97.3 and 99.2; EMSA: 25 mM Tris-HCl pH 7.5, 1 mM MgCl2, 1 mM DTT, 50 ug/mL BSA, 50 or 300 mM NaCl and/or 0.5% NP-40, 15 min 37 C, 6% PAGE-TBE at 4 C; pull-down: Pierce magnetic RNA-protein pull-down kit
# Details: protein: recombinant; tags: C-terminal 6xHis (pET28b); label: 5' maleimide-IR800 on oligo 1 (DNA); blunt
binder,measurement,value
"50-bp m5C DNA:RNA hybrid (oligo 1/oligo 3) (DNA:RNA, m5C at every C of the RNA strand (positions 14, 19, 30, 33, 36; five m5C)) DNA: ATCATCACCATAACGTCGATGTATCAACTTCGATTAGTCACACCAATTAA RNA: UUAAUUGGUGUGACUAAUCGAAGUUGAUACAUCGACGUUAUGGUGAUGAU",binding result,binds
